Earlier results on one substance are cited in patent US6022890A, “Immunosuppressant tetracyclic triterpenes” (Merck & Co., Inc., priority 1998, dated 2000).

The data set deals with T1, Kv 1.3 channels (CHO cells transfected with Kv 1.3 channels) (Homo sapiens, UniProt P22001).
T1 construct: expressed in transfected cells; host or cells: CHO cells
The following applies: stated for the reference blocker that defines the efflux window.

T1 sequence (P22001 whole entry): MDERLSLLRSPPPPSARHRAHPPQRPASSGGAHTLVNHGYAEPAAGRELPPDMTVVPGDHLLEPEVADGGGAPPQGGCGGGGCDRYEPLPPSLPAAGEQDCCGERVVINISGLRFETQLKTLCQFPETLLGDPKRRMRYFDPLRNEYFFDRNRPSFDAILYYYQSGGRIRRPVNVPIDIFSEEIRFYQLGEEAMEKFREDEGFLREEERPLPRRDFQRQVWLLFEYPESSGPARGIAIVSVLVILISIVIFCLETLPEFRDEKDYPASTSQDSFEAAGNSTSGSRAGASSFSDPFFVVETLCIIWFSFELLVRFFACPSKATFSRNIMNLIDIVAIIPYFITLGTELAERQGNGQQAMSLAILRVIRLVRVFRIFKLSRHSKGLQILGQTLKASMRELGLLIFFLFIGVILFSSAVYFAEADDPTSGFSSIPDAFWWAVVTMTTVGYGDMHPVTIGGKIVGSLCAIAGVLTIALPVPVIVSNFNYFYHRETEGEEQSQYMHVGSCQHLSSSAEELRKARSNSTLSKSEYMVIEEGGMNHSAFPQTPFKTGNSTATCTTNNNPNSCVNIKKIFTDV

By IC50 is commonly meant the point on the concentration scale where inhibition reaches its midpoint. Take “margatoxin (TIINVKCTSPKQCLPPCKAQFGQSAGAKCMNGKCKCYPH; UniProt P40755 1-39, looked up)”: the IC50 was 0.1 nM.
